US20150086555A1

What was measured:
Conditions in all cases: remark: other sources report otherwise
[1] = molecular target: T1, recombinant soluble homotrimeric HA of A/California/4/09 (H1N1) (Influenza A virus A/California/04/2009(H1N1)); experiment: HA microarray, BCC supernatant
[2] = molecular target: T2, recombinant soluble homotrimeric HA of A/Japan/305/57 (H2N2) (Influenza A virus A/Japan/305/1957(H2N2)); experiment: HA microarray, BCC supernatant
[3] = molecular target: T3, recombinant soluble homotrimeric HA of A/Netherlands/219/03 (H7N7) (Influenza A virus A/Netherlands/219/03(H7N7)); experiment: HA microarray, BCC supernatant
[4] = molecular target: T4, recombinant soluble homotrimeric HA of A/Solomon Islands/3/06 (H1N1) (Influenza A virus A/Solomon Islands/3/2006(H1N1)); experiment: HA microarray, BCC supernatant
[5] = molecular target: T5, recombinant soluble homotrimeric HA of A/chicken/Vietnam/NCVD-016/08 (H5N1) (Influenza A virus A/chicken/Vietnam/NCVD-016/2008(H5N1)); experiment: HA microarray, BCC supernatant
[6] = molecular target: T6, recombinant soluble homotrimeric HA of A/duck/Yangzhou/02/05 (H8N4) (Influenza A virus A/duck/Yangzhou/02/2005(H8N4)); experiment: HA microarray, BCC supernatant
[7] = molecular target: T7, recombinant soluble homotrimeric HA of A/northern shoveler/California/HKWF115/07 (H6) (Influenza A virus A/northern shoveler/California/HKWF115/2007(H6N1)); experiment: HA microarray, BCC supernatant
[8] = molecular target: T8, recombinant soluble homotrimeric HA of A/swine/Ontario/01911-2/99 (H4N6) (Influenza A virus A/Swine/Ontario/01911-2/99 (H4N6)); experiment: HA microarray, BCC supernatant
[9] = molecular target: recombinant homotrimeric HA A/California/4/09 H1N1 (Influenza A virus A/California/04/2009(H1N1)); experiment: protein microarray, purified IgG, trimeric HA
[10] = molecular target: recombinant homotrimeric HA A/Egypt/3300-NAMRU3/08 H5N1 (Influenza A virus A/Egypt/3300-NAMRU3/2008(H5N1)); experiment: protein microarray, purified IgG, trimeric HA
[11] = molecular target: recombinant homotrimeric HA A/Hong Kong/1073/99 H9N2 (Influenza A virus A/Hong Kong/1073/99 (H9N2)); experiment: protein microarray, purified IgG, trimeric HA
[12] = molecular target: recombinant homotrimeric HA A/Hong Kong/2108/03 H9N2 (Influenza A virus A/HK/2108/2003(H9N2)); experiment: protein microarray, purified IgG, trimeric HA
[13] = molecular target: recombinant homotrimeric HA A/Japan/305/57 H2N2 (Influenza A virus A/Japan/305/1957(H2N2)); experiment: protein microarray, purified IgG, trimeric HA
[14] = molecular target: recombinant homotrimeric HA A/Netherlands/219/03 H7N7 (Influenza A virus A/Netherlands/219/03(H7N7)); experiment: protein microarray, purified IgG, trimeric HA
[15] = molecular target: recombinant homotrimeric HA A/Solomon Islands/3/06 H1N1 (Influenza A virus A/Solomon Islands/3/2006(H1N1)); experiment: protein microarray, purified IgG, trimeric HA
[16] = molecular target: recombinant homotrimeric HA A/South Carolina/1/18 H1N1 (Influenza A virus A/South Carolina/1/18 (H1N1)); experiment: protein microarray, purified IgG, trimeric HA
[17] = molecular target: recombinant homotrimeric HA A/chicken/Vietnam/NCVD-016/08 H5N1 (Influenza A virus A/chicken/Vietnam/NCVD-016/2008(H5N1)); experiment: protein microarray, purified IgG, trimeric HA
[18] = molecular target: recombinant homotrimeric HA A/duck/Yangzhou/02/05 H8N4 (Influenza A virus A/duck/Yangzhou/02/2005(H8N4)); experiment: protein microarray, purified IgG, trimeric HA
[19] = molecular target: recombinant homotrimeric HA A/northern shoveler/California/HKWF115/07 H6N4 (Influenza A virus A/northern shoveler/California/HKWF115/2007(H6N1)); experiment: protein microarray, purified IgG, trimeric HA
[20] = molecular target: recombinant homotrimeric HA A/swine/Ontario/01911-2/99 H4N6 (Influenza A virus A/Swine/Ontario/01911-2/99 (H4N6)); experiment: protein microarray, purified IgG, trimeric HA
[21] = molecular target: T1, recombinant soluble homotrimeric HA of …; experiment: trimeric HA microarray, transfection supernatant set 5
[22] = molecular target: recombinant soluble homotrimeric HA of A/Egypt/3300-NAMRU3/08 (H5N1) (Influenza A virus A/Egypt/3300-NAMRU3/2008(H5N1)); experiment: as above
[23] = molecular target: T2, recombinant soluble homotrimeric HA of …; experiment: as above
[24] = molecular target: T3, recombinant soluble homotrimeric HA of …; experiment: as above
[25] = molecular target: T4, recombinant soluble homotrimeric HA of …; experiment: as above
[26] = molecular target: recombinant soluble homotrimeric HA of A/South Carolina/1/18 (H1N1) (Influenza A virus A/South Carolina/1/18 (H1N1)); experiment: as above
[27] = molecular target: T5, recombinant soluble homotrimeric HA of …; experiment: as above
[28] = molecular target: T6, recombinant soluble homotrimeric HA of …; experiment: as above
[29] = molecular target: T7, recombinant soluble homotrimeric HA of …; experiment: as above
[30] = molecular target: T8, recombinant soluble homotrimeric HA of …; experiment: as above
[31] = molecular target: T9, recombinant soluble homotrimeric HA of A/Vietnam/1203/04 (H5N1) (Influenza A virus A/VietNam/1203/2004(H5N1)); experiment: HA microarray, BCC supernatant
[32] = molecular target: recombinant homotrimeric HA A/Anhui/1/05 H5N1 (Influenza A virus A/Anhui/1/2005(H5N1)); experiment: protein microarray, purified IgG, trimeric HA
[33] = molecular target: recombinant homotrimeric HA A/Hong Kong/156/97 H5N1 (Influenza A virus A/Hong Kong/156/97 (H5N1)); experiment: protein microarray, purified IgG, trimeric HA
[34] = molecular target: recombinant homotrimeric HA A/Indonesia/5/05 H5N1 (Influenza A virus A/Indonesia/5/2005(H5N1)); experiment: protein microarray, purified IgG, trimeric HA
[35] = molecular target: recombinant homotrimeric HA A/Vietnam/1203/04 H5N1 (Influenza A virus A/VietNam/1203/2004(H5N1)); experiment: protein microarray, purified IgG, trimeric HA
[36] = molecular target: recombinant soluble homotrimeric HA of A/Anhui/1/05 (H5N1) (Influenza A virus A/Anhui/1/2005(H5N1)); experiment: trimeric HA microarray, transfection supernatant set 5
[37] = molecular target: recombinant soluble homotrimeric HA of A/Hong Kong/156/97 (H5N1) (Influenza A virus A/Hong Kong/156/97 (H5N1)); experiment: as above
[38] = molecular target: recombinant soluble homotrimeric HA of A/Indonesia/5/05 (H5N1) (Influenza A virus A/Indonesia/5/2005(H5N1)); experiment: as above
[39] = molecular target: T9, recombinant soluble homotrimeric HA of …; experiment: as above

B1: TCN-544 (5082_A19) (antibody, V domains shown)
VH: QVQLQESGPGLVKPSETLSLTCTVSRGSIGHYFWSWIRQPPGKGLEWIGYISYSGSTKYNPSLRSRVTISVDTSKNQFSLNLNSVTATDTALYYCAREDYDILTGAGPGMEVWGQGTTVTVSS
VL: QSMLTQPPSASGTPGQRVTISCSGSSSNIGSNTVNWFKHLPGTAPKLLIYRNDLRPSGVPDRFSGSKSGTSASLAISGLQSEDEADYYCATWDDSLNGFYVFGTGTKVTVL
Trimeric HA Binding: RLU [1]: 281 RLU | Trimeric HA Binding: RLU [2]: 187 RLU | Trimeric HA Binding: RLU [3]: 1620 RLU | Trimeric HA Binding: RLU [4]: 179 RLU | Trimeric HA Binding: RLU [5]: 272 RLU | Trimeric HA Binding: RLU [6]: 464 RLU | Trimeric HA Binding: RLU [7]: 1690 RLU | Trimeric HA Binding: RLU [8]: 316 RLU | Trimeric HA Binding: RLU [9]: 285 RLU | Trimeric HA Binding: RLU [10]: 2140 RLU | Trimeric HA Binding: RLU [11]: 534 RLU | Trimeric HA Binding: RLU [12]: 145 RLU | Trimeric HA Binding: RLU [13]: 450 RLU | Trimeric HA Binding: RLU [14]: 203 RLU | Trimeric HA Binding: RLU [15]: 1010 RLU | Trimeric HA Binding: RLU [16]: 148 RLU | Trimeric HA Binding: RLU [17]: 402 RLU | Trimeric HA Binding: RLU [18]: 380 RLU | Trimeric HA Binding: RLU [19]: 82 RLU | Trimeric HA Binding: RLU [20]: 154 RLU | Trimeric HA Binding: RLU [21]: 706 RLU | Trimeric HA Binding: RLU [22]: 19400 RLU | Trimeric HA Binding: RLU [23]: 1000 RLU | Trimeric HA Binding: RLU [24]: 4650 RLU | Trimeric HA Binding: RLU [25]: 997 RLU | Trimeric HA Binding: RLU [26]: 1330 RLU | Trimeric HA Binding: RLU [27]: 3070 RLU | Trimeric HA Binding: RLU [28]: 9440 RLU | Trimeric HA Binding: RLU [29]: 2920 RLU | Trimeric HA Binding: RLU [30]: 2390 RLU

B2: TCN-542 (5079_A16) (antibody, V domains shown)
VH: QVQLQESGPGLVKPSQTLSLTCTVSGGSISSGNYYWNWVRQHPGKGLEWIGYIYYRGSTFYNPSLKSRVTISIDTSKNQFSLRLSSVTAADTAVYYCAKDTRSSLDNYQYGMDVWGQGTTVTVSS
VL: QTVVTQEPSLTVSPGGTVTLTCASSTGAVTSSYFPNWFQQKPGQAPRPLIYSTTIRHSWTPARFSGSLLGGKAALTLSGVQPEDEADYYCLLYSGGDPVAFGGGTKLTVL
Trimeric HA Binding: RLU [2]: 142 RLU | Trimeric HA Binding: RLU [3]: 909 RLU | Trimeric HA Binding: RLU [31]: 306 RLU | Trimeric HA Binding: RLU [6]: 332 RLU | Trimeric HA Binding: RLU [8]: 350 RLU | Trimeric HA Binding: RLU [32]: 10500 RLU | Trimeric HA Binding: RLU [9]: 238 RLU | Trimeric HA Binding: RLU [10]: 730 RLU | Trimeric HA Binding: RLU [11]: 588 RLU | Trimeric HA Binding: RLU [33]: 894 RLU | Trimeric HA Binding: RLU [34]: 108 RLU | Trimeric HA Binding: RLU [13]: 502 RLU | Trimeric HA Binding: RLU [16]: 117 RLU | Trimeric HA Binding: RLU [35]: 1060 RLU | Trimeric HA Binding: RLU [18]: 182 RLU | Trimeric HA Binding: RLU [36]: 7410 RLU | Trimeric HA Binding: RLU [22]: 14800 RLU | Trimeric HA Binding: RLU [37]: 786 RLU | Trimeric HA Binding: RLU [38]: 1760 RLU | Trimeric HA Binding: RLU [26]: 1120 RLU | Trimeric HA Binding: RLU [39]: 29500 RLU | Trimeric HA Binding: RLU [27]: 5460 RLU | Trimeric HA Binding: RLU [28]: 11600 RLU | Trimeric HA Binding: RLU [29]: 2370 RLU | Trimeric HA Binding: RLU [30]: 14300 RLU
